Laboratory results as given in patent publication US20060088535.

Test system: ApCREB-1 (Aplysia californica)
Test: cell_activity
Settings: F9 cells with PKA; 2.13 without PKA; 1.64 with ApCREB-2 plus PKA

## TGACGTCA (double strand) [single CRE palindrome in pGL3-CRE reporter]
  activity (fold activation): 10.5
